Measurements from PMC6370916.
Numbering of substitutions follows the chain as printed. Names and notes keep the numbering of the source. Each block holds one binder with its values, some of them ahead of it.

Target: T1, recombinant human SEMA3C Fc chimera, Q99985
T1 chain: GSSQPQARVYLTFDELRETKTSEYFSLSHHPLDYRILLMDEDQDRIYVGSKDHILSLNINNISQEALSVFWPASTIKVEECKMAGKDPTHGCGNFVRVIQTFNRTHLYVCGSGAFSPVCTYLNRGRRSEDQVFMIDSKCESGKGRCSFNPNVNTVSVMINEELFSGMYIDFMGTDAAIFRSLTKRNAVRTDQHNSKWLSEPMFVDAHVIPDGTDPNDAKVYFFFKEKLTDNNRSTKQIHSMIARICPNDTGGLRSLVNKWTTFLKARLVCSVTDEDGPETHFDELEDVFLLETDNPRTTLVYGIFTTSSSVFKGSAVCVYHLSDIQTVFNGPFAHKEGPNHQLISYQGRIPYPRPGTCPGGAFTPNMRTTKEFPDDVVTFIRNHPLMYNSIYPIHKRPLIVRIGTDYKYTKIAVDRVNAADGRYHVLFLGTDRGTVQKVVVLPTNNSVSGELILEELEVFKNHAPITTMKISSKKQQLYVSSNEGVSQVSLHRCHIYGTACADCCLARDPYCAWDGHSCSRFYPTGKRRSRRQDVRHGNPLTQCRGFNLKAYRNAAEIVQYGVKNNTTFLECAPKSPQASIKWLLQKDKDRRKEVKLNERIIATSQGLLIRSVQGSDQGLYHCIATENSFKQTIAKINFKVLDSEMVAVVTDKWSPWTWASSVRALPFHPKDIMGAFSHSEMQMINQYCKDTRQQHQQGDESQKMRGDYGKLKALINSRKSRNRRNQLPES
Experiment: Saturation receptor-ligand binding assay
Details: chain shown with the change, SEMA3C 0-10 nM, read-out O.D. 450 nm

[1] = NRP2 co-expressed with WT PLXNA1, parent: 0.63 nM
[2] = NRP2 co-expressed with WT PLXNA1, parent: 0.65
[3] = NRP2 co-expressed with WT PLXNA2, parent: 0.89 nM
[4] = NRP2 co-expressed with WT PLXNA2, parent: 0.60
[5] = NRP2 co-expressed with WT PLXNA3, parent: 0.93 nM
[6] = NRP2 co-expressed with WT PLXNA3, parent: 0.54
[7] = NRP2 co-expressed with WT PLXNA4, parent: 1.03 nM
[8] = NRP2 co-expressed with WT PLXNA4, parent: 0.65
[9] = cells expressing NRP2 alone (no PLXNA co-expressed), parent: 0.81 nM
[10] = cells expressing NRP2 alone (no PLXNA co-expressed), parent: 0.89

- Kd [1]: 0.67 nM
- other: Bmax [2]: 0.55 O.D. 450 nm
- Kd [3]: 1 nM
- other: Bmax [4]: 0.52 O.D. 450 nm
- Kd [5]: 1.12 nM
- other: Bmax [6]: 0.42 O.D. 450 nm
- Kd [7]: 1.25 nM
- other: Bmax [8]: 0.55 O.D. 450 nm
- Kd [9]: 0.73 nM
- other: Bmax [10]: 0.84 O.D. 450 nm
B1: human Neuropilin 2, wild type, O60462 A506V (protein)
chain: RGQPDPPCGGRLNSKDAGYITSPGYPQDYPSHQNCEWIVYAPEPNQKIVLNFNPHFEIEKHDCKYDFIEIRDGDSESADLLGKHCGNIAPPTIISSGSMLYIKFTSDYARQGAGFSLRYEIFKTGSEDCSKNFTSPNGTIESPGFPEKYPHNLDCTFTILAKPKMEIILQFLIFDLEHDPLQVGEGDCKYDWLDIWDGIPHVGPLIGKYCGTKTPSELRSSTGILSLTFHTDMAVAKDGFSARYYLVHQEPLENFQCNVPLGMESGRIANEQISASSTYSDGRWTPQQSRLHGDDNGWTPNLDSNKEYLQVDLRFLTMLTAIATQGAISRETQNGYYVKSYKLEVSTNGEDWMVYRHGKNHKVFQANNDATEVVLNKLHAPLLTRFVRIRPQTWHSGIALRLELFGCRVTDAPCSNMLGMLSGLIADSQISASSTQEYLWSPSAARLVSSRSGWFPRIPQAQPGEEWLQVDLGTPKTVKGVIIQGVRGGDSITAVEARAFVRKFKVSYSLNGKDWEYIQDPRTQQPKLFEGNMHYDTPDIRRFDPIPAQYVRVYPERWSPAGIGMRLEVLGCDWTDSKPTVETLGPTVKSEETTTPYPTEEEATECGENCSFEDDKDLQLPSGFNCNFDFLEEPCGWMYDHAKWLRTTWASSSSPNDRTFPDDRNFLRLQSDSQREGQYARLISPPVHLPRSPVCMEFQYQATGGRGVALQVVREASQESKLLWVIREDQGGEWKHGRIILPSYDMEYQIVFEGVIGKGRSGEIAIDDIRISTDVPLENCMEPISAFAGENFKVDIPEIHEREGYEDEIDDEYEVDWSNSSSATSGSGAPSTDKEKSWLYTLDPILITIIAMSSLGVLLGATCAGLLLYCTCSYSGLSSRSCTTLENYNFELYDGLKHKVKMNHQKCCSEA

- Kd [1]: 0.68 nM
- other: Bmax [2]: 0.66 O.D. 450 nm
- Kd [3]: 1.01 nM
- other: Bmax [4]: 0.67 O.D. 450 nm
- Kd [5]: 1.18 nM
- other: Bmax [6]: 0.52 O.D. 450 nm
- Kd [7]: 1.07 nM
- other: Bmax [8]: 0.59 O.D. 450 nm
- Kd [9]: 0.83 nM
- other: Bmax [10]: 0.93 O.D. 450 nm
B2: human Neuropilin 2, wild type, O60462 V573L (protein)
chain: B1 chain with V486A, V553L
